According to article PMC9882245:

Target: NLuc-CLR:RAMP3 (N-terminally nanoluciferase-tagged CLR co-expressed with RAMP3; AM2 receptor) (human) (UniProt Q16602)
Experiment: FRET or BRET

Chain of NLuc-CLR:RAMP3 (N-terminally nanoluciferase-tagged CLR co-expressed with RAMP3; AM2 receptor) (human) (Q16602 23-461, chain 1 of 2): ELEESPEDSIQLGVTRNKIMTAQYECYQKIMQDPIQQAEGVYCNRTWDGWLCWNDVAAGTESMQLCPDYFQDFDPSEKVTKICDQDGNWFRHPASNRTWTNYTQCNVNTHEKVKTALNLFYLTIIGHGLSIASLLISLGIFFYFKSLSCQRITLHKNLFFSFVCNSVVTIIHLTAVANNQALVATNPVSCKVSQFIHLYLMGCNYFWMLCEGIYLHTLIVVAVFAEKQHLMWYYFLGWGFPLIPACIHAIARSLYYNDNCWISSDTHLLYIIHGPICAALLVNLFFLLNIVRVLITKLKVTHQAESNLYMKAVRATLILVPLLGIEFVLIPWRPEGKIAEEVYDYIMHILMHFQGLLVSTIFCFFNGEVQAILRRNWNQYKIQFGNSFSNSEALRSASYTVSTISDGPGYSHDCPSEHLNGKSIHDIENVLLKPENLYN
Chain of NLuc-CLR:RAMP3 (N-terminally nanoluciferase-tagged CLR co-expressed with RAMP3; AM2 receptor) (human) (O60896 24-148, chain 2 of 2, further chain): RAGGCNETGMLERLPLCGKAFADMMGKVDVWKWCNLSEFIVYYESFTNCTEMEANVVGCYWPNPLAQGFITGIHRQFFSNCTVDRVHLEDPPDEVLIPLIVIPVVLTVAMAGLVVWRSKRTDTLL

Kd	dissociation half-life, fast component	dissociation half-life, slow component	half-life (t1/2) from the off-rate of the association kinetics analysis	Substance
7 nM	7 min	76 min	21 min	AM2/IMD-TAMRA (adrenomedullin 2/intermedin labeled with TAMRA on a Lys substituted at D35) (peptide)
26 nM	0.75 min	6.9 min	2.5 min	AM-TAMRA (adrenomedullin labeled with TAMRA on a Lys substituted at N40) (peptide)
